Molecular target: T1, B/Vic-I53_dn5 nanoparticle (Influenza B virus B/Brisbane/60/2008 …, strain)
T1 chain: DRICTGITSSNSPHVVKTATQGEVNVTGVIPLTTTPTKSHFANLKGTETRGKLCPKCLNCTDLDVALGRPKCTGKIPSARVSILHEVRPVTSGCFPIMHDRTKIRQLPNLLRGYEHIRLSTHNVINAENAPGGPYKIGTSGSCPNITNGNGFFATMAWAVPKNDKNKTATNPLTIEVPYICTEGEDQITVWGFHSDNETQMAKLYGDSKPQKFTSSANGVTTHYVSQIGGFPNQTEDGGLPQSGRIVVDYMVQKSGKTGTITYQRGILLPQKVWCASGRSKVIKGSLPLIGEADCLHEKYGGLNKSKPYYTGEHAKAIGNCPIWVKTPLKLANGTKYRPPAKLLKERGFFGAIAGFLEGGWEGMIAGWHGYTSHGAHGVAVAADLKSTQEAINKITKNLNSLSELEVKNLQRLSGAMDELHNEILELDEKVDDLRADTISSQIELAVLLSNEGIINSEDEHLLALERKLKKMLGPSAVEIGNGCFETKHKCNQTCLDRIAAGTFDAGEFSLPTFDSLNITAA
Test: ELISA

B1: CR8071 (antibody, V domains shown)
VH: QVQLVQSGAEVKKPGASVRVSCRASGYIFTESGITWVRQAPGQGLEWMGWISGYSGDTKYAQKLQGRVTMTKDTSTTTAYMELRSLRYDDTAVYYCARDVQYSGSYLGAYYFDYWSPGTLVTVSS
VL: QSVLTQPPSASGTPGQRVTISCSGSSSNIGTNYVYWYQQFPGTAPKLLIYRSYQRPSGVPDRFSGSKSGSSASLAISGLQSEDEADYYCATWDDSLDGWVFGGGTKLTVL
  binding result: binds

Reference: paper PMC8269962 (Nature, 2021)
